The target in this test is UNC5B netrin-1 receptor on mouse leukocytes / CD4+ T cells (mouse) (UniProt Q8K1S3). The test is described as follows: cell-based or functional assay.
UniProt Q8K1S3, sequence (Q8K1S3 27-945): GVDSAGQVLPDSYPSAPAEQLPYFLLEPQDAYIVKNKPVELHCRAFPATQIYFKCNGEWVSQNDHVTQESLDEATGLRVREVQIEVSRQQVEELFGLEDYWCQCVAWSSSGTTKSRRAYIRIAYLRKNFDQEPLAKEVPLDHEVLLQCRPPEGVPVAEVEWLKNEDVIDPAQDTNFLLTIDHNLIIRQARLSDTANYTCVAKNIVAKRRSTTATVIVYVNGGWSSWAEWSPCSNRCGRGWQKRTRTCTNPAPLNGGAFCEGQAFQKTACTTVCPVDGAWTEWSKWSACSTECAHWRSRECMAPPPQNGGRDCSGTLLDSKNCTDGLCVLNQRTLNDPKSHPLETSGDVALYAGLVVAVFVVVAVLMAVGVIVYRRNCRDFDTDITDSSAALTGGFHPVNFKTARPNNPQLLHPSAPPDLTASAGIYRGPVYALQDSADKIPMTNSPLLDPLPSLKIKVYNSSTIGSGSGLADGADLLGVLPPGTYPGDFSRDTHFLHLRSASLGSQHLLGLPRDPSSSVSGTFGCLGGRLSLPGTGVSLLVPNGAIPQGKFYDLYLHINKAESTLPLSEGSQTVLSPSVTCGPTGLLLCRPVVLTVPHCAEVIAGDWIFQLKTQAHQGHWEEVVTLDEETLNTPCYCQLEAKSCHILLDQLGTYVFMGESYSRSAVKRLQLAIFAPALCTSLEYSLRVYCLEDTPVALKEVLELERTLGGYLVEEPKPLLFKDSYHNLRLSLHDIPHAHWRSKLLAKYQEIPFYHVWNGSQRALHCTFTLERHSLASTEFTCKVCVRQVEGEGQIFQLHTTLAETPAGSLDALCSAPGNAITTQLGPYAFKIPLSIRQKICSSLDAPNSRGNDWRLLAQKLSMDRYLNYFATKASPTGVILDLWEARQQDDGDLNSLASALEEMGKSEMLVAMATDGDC

Turning to “recombinant netrin-1 (R&D Systems) (ligand)”, the inhibition of anti-CD3 stimulated cytokine production in CD4+CD25- T cells: netrin-1 concentration with maximal inhibition came to 500 ng/mL and the inhibition of anti-CD3 stimulated cytokine production in CD4+CD25- T cells: netrin-1 concentration with minimal effect is 100 ng/mL.
